In paper PMC5694551, “Kir2.1-Nav1.5 Channel Complexes Are Differently Regulated than Kir2.1 and Nav1.5 Channels Alone” (Frontiers in Physiology, 2017):

Target: T1, Nav1.5 channels of rat ventricular myocytes (rat (endogenous in ventricular myocytes), UniProt P15389 1-2019)
T1 construct: Nav1.5 sodium channel alpha subunit, endogenous at the membrane of Sprague-Dawley rat ventricular myocytes; source: endogenous, isolated rat ventricular myocytes (fixed, non-permeabilized)
Test: proximity ligation; Duolink PLA in fixed, non-permeabilized rat ventricular myocytes; primary antibodies against extracellular domains of Nav1.5 and Kir2.1; buffers without detergents; confocal microscopy; negative control without primary antibodies
Conditions: partners not purified

T1 sequence (P15389 whole entry): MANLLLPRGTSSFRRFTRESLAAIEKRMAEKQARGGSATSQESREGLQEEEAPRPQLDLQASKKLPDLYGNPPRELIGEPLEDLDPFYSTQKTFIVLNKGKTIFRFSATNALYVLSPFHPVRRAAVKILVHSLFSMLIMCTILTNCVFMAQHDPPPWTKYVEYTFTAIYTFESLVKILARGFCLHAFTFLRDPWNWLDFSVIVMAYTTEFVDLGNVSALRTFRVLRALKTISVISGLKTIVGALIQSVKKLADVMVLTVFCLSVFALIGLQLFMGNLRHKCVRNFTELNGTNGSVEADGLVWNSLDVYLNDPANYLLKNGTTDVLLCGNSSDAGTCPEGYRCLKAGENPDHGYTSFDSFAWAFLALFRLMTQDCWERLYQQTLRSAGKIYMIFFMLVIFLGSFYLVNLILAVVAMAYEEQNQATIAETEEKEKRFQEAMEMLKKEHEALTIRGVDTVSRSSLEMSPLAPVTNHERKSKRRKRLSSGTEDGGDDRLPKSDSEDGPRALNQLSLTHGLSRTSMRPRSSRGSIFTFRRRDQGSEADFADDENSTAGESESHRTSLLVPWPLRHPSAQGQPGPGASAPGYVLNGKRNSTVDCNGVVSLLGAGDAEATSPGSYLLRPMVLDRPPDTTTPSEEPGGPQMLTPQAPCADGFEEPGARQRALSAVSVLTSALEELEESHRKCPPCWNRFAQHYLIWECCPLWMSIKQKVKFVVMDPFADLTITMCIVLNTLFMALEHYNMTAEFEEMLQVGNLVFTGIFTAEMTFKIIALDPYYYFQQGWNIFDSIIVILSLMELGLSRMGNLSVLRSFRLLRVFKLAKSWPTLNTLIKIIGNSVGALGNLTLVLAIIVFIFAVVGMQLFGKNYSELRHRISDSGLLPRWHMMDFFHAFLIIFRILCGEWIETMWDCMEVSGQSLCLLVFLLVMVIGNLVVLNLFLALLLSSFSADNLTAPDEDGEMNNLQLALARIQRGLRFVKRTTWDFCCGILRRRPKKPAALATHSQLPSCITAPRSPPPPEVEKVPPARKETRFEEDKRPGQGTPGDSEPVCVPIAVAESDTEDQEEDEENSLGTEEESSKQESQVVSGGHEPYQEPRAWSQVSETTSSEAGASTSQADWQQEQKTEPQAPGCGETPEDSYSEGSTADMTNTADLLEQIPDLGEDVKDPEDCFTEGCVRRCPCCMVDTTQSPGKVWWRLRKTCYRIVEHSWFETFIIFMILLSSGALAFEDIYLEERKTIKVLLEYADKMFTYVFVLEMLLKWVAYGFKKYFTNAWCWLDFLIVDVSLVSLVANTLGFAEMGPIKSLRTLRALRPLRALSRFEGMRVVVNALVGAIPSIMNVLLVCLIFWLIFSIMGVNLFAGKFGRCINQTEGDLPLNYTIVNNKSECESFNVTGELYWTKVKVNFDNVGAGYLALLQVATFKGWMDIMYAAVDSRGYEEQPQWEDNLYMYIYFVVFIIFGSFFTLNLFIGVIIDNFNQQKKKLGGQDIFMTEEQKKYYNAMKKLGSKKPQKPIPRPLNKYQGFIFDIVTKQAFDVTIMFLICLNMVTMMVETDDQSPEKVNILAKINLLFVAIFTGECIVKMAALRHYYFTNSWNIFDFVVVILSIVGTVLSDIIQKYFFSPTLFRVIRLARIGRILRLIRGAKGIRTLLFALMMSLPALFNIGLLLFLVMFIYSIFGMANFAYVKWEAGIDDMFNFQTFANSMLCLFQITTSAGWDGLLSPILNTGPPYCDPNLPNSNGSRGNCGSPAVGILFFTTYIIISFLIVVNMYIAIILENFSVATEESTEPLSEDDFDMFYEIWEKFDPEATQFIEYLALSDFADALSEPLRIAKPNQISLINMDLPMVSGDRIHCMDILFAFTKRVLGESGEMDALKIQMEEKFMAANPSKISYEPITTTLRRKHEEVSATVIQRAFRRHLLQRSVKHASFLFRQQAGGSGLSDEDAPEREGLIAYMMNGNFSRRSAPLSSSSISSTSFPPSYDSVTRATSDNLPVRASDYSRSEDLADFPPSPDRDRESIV

B1: Kir2.1 channels of rat ventricular myocytes (natural protein, rat (endogenous in ventricular myocytes), UniProt Q64273 1-427, looked up)
chain: MGSVRTNRYSIVSSEEDGMKLATMAVANGFGNGKSKVHTRQQCRSRFVKKDGHCNVQFINVGEKGQRYLADIFTTCVDIRWRWMLVIFCLAFVLSWLFFGCVFWLIALLHGDLDASKESKACVSEVNSFTAAFLFSIETQTTIGYGFRCVTDECPIAVFMVVFQSIVGCIIDAFIIGAVMAKMAKPKKRNETLVFSHNAVIAMRDGKLCLMWRVGNLRKSHLVEAHVRAQLLKSRITSEGEYIPLDQIDINVGFDSGIDRIFLVSPITIVHEIDEDSPLYDLSKQDIDNADFEIVVILEGMVEATAMTTQCRSSYLANEILWGHRYEPVLFEEKHCYKVDYSRFHKTYEVPNTPLCSARDLAEKKYILSNANSFCYENEVALTSKEEEDSENGVPESTSTDSPPGIDLHNQASVPLEPRPLRRESEI
notes: Kir2.1 inward rectifier K+ channel, endogenous at the membrane of Sprague-Dawley rat ventricular myocytes; source: endogenous, isolated rat ventricular myocytes (fixed, non-permeabilized)
fold increase of the PLA fluorescence signal over the negative control (no primary antibodies): ~6.5 fold
